This test addresses GPC3蛋白 (Glypican 3 protein, recombinant) (UniProt P51654). Put plainly: sandwich ELISA: GPC3 polyclonal antibody coated, GPC3 protein titrated, 0.2μg/mL GN2-Luc as detector, luminescence. In general terms: In an ELISA, binding on a coated surface is turned into a signal by an enzyme label.
Chain of UniProt P51654 (P51654 25-559 limits assumed): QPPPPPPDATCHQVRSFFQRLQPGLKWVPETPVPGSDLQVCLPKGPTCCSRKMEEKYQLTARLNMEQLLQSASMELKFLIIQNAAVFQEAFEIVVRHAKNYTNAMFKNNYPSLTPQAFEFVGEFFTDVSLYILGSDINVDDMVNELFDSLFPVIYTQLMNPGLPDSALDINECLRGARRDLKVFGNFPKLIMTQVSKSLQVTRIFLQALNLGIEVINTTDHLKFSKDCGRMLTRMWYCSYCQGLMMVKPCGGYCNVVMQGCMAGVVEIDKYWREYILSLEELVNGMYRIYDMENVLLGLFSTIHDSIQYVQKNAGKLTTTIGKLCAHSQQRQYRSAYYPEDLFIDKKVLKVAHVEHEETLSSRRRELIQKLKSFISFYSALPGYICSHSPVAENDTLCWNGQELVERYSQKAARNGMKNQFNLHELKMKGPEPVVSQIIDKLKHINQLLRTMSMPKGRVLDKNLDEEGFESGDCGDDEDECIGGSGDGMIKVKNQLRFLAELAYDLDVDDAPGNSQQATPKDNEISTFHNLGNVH

B1: 融合蛋白GN2-Luc (GN2-Nano-luciferase fusion protein) (protein, part only; not given: junction and purification tag, not shown: small tags and cut ends)
chain, part: QVQLVESGGGLVQPGGSLRLSCAASGFTLDAYAIGWFRQAPGKEREGVSYITSGTGTTLYADSVKGRFTISRDNAKNTVYLQMNSLKPEDTAVYFCTTLKRTTAGGWPIPGRIGGQGTQVTVSS
In the case of B1, the EC20 (GPC3 concentration at 20% of the strongest luminescence) came to 0.0539 µg/mL and the EC80 (GPC3 concentration at 80% of the strongest luminescence) is 0.219 µg/mL.

The record behind these values is patent publication CN111320694A.
